# In patent US20230137562A1, “TAU AGGREGATION INHIBITORS” (priority 2017, published 2023):
# Several values for one entry are separate records, joined by “and”; a condition that tells them apart may be missing. Identical values can stand only once. Square brackets hold non-standard residues; d marks the D form. Ends that are not written are not given here. hArg = N=C(N)NCCCC[C@H](N)C(=O)O
# T1: Ac-VQIINK-NH2
# T1 peptide: Ac-VQIINK-NH2
# Molecular target: T1, Ac-VQIINK-NH2
# Assay: cell-based or functional assay
row,Binder,"IC50 (µM), VQIINK Inhibition (ThT)"
1,IWIRYW,5.43 µM
2,WRIRLRW,4.04 µM
3,RIRIRW,10.8 µM
4,WRIWIRLW,3.97 µM
5,KWWIRIRYW,1.8 µM
6,ERIRIRW,5.98 µM
7,IRLWVW,1.63 µM
8,RIWIRIW,3.17 µM
9,RIALYWW,2.39 µM
10,IRIWIW,2.94 µM
11,WRIWIR,11.8 µM
12,RIWIRVW,2.14 µM
13,WRARARW,29.1 µM
14,FRIRIHHW,1.08 µM
15,WRIRLYWR,2.12 µM
16,W[hArg]I[hArg]L[hArg]W [W(hR)I(hR)L(hR)W],2.52 µM
17,WRIHIRW,1.47 µM
18,WRIRIAW,6 µM
19,RIRIRWW,10.2 µM
20,WRIRLRYW,4.13 µM

row,Binder,"IC50 (µM), VQIINK Inhibition (ThT)"
1,HRIRIRW,9.07 µM
2,WKLKLRWW,0.82 µM
3,LKIHIRHW,3.05 µM
4,RRIRIRW,4.29 µM
5,FRIRIKHY,3.61 µM
6,WRIRIRF,42.8 µM
7,IRLWIW,1.83 µM
8,ERIWIRYW,6.19 µM
9,WRIHIRYW,3.17 µM
10,WRARIRW,5.77 µM
11,RIRLEWW,3.89 µM
12,WRIRARW,4.07 µM
13,WYRIWIRW,2.02 µM and 3.69 µM
14,WRIRIRR,34.1 µM
15,WRIRIRW,2.96 µM
16,WRLWFWWR,1.19 µM
17,WRFRLYLR,2.81 µM
18,IWIRLW,2.12 µM
19,WWIRIRYWK,1.89 µM
20,RIRIFIW,1.57 µM

row,Binder,"IC50 (µM), VQIINK Inhibition (ThT)"
1,RIRLWIW,4.63 µM
2,WRIRIRA,8.28 µM
3,WRIRIRH,11.6 µM
4,KIRLYWW,2.86 µM
5,WKIHIWWR,2.01 µM
6,FRIWIRYF,4.64 µM
7,ARIRIRW,2.72 µM
8,WRIWIRW,2.73 µM
9,ARIWIRYW,3.14 µM
10,RIRILIL,1.64 µM
11,RIRIAIW,1.8 µM
12,WIRIRIW,0.81 µM and 1.72 µM
13,WIRYWWRI,2.8 µM
14,RIRIWVW,2.3 µM
15,WYRLRIRW,2.36 µM
16,WRIRWRYW,3.46 µM
17,RIHIFFW,1.95 µM
18,IWLRLW,2.29 µM
19,RIRVWIF,2.8 µM

# Molecular target: His-Tau40P301L Tau (UniProt P10636-8 1-441)
# Assay: cell-based or functional assay
# Sequence of His-Tau40P301L Tau (P10636 other isoform, or with tags, fused parts or gaps limits assumed): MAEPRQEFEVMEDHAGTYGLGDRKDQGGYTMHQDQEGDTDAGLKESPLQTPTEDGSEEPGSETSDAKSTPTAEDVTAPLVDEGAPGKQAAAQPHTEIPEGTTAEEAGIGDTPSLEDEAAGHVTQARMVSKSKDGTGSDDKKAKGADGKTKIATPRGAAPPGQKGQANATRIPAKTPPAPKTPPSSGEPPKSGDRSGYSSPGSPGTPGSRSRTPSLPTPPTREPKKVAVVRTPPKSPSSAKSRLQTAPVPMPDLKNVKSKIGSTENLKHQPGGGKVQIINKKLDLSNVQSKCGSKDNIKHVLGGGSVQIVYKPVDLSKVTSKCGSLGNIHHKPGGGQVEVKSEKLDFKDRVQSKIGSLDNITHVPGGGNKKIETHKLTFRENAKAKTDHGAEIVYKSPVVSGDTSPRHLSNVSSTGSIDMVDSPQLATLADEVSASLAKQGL
row,Binder,"IC50 (µM), Tau40 assay (ThT)"
1,IWIRYW,4.05 µM
2,WRIRLRW,0.9 µM and 0.97 µM
3,RIRIRW,10.9 µM
4,WRIWIRLW,7.32 µM
5,KWWIRIRYW,4.62 µM and 7.02 µM
6,ERIRIRW,12.2 µM
7,IRLWVW,8.77 µM
8,RIWIRIW,6.47 µM
9,RIALYWW,3.54 µM
10,IRIWIW,6.77 µM
11,WRIWIR,7.22 µM
12,RIWIRVW,6.36 µM
13,WRARARW,12 µM
14,FRIRIHHW,3.2 µM
15,WRIRLYWR,3.1 µM
16,W[hArg]I[hArg]L[hArg]W [W(hR)I(hR)L(hR)W],3.39 µM
17,WRIHIRW,3.09 µM
18,WRIRIAW,4.72 µM
19,RIRIRWW,4.57 µM
20,WRIRLRYW,1.02 µM and 1.32 µM

row,Binder,"IC50 (µM), Tau40 assay (ThT)"
1,HRIRIRW,3.28 µM
2,WKLKLRWW,2.06 µM
3,LKIHIRHW,3.79 µM
4,RRIRIRW,2.88 µM
5,FRIRIKHY,9.45 µM
6,WRIRIRF,10.8 µM
7,IRLWIW,9.6 µM
8,ERIWIRYW,5.33 µM
9,WRIHIRYW,3.76 µM
10,WRARIRW,3.7 µM
11,RIRLEWW,9.8 µM
12,WRIRARW,8.01 µM
13,WYRIWIRW,0.96 µM and 1 µM and 1.73 µM
14,WRIRIRR,3.15 µM
15,WRIRIRW,0.9 µM and 0.84 µM
16,WRLWFWWR,1.82 µM
17,WRFRLYLR,47 µM
18,IWIRLW,11.4 µM
19,WWIRIRYWK,1.02 µM and 1.12 µM
20,RIRIFIW,3.94 µM

row,Binder,"IC50 (µM), Tau40 assay (ThT)"
1,RIRLWIW,7.07 µM
2,WRIRIRA,8.31 µM
3,WRIRIRH,4.44 µM
4,KIRLYWW,5.73 µM
5,WKIHIWWR,5.75 µM
6,FRIWIRYF,4 µM
7,ARIRIRW,4.19 µM
8,WRIWIRW,2.98 µM and 2.1 µM and 2.11 µM
9,ARIWIRYW,4.08 µM
10,RIRILIL,2.15 µM
11,RIRIAIW,4.14 µM
12,WIRIRIW,2.03 µM and 2.04 µM
13,WIRYWWRI,3.69 µM
14,RIRIWVW,7.07 µM
15,WYRLRIRW,0.86 µM and 0.97 µM
16,WRIRWRYW,0.42 µM and 0.41 µM
17,RIHIFFW,4.4 µM
18,IWLRLW,9.93 µM
19,RIRVWIF,6.53 µM and 6.89 µM
